Reference: the supplement of paper PMC7877785
± gives the uncertainty stated by the source.

Assay: self-splicing fitness, log relative to wild type (ln ratio); higher = more splicing; Tetrahymena group I intron in knt gene, E. coli kanamycin selection, DiMSum; sequences stand for … in CUCUCU…GGAGGGAAAAGUUAUCAGGCAUGCACCUGGUAGCUAGUCUUUAAACCAAUAGAUUGCAUCGGUUUAAAAGGCAAGACCGUCAAAUUGCGGGAAAGGGGUCAACAGCCGUUCAGUACCAAGUCUCAGGGGAAACUUUGAGAUGGCCUUGCAAAGGGUAUGGUAAUAAGCUGACGGACAUGGUCCUAACCACGCAGCCAAGUCCUAAGUCAACAGAUCUUCUGUUGAUAUGGAUGCAGUUCACAGACUAAAUGUCGGUCGGGGAAGAUGUAUUCUUCUCAUAAGAUAUAGUCGGACCUCUCCUUAAUGGGAGCUAGCGGAUGAAGUGAUGCAACACUGGAGCCGCUGGGAACUAAUUUGUAUGCGAAAGUAUAUUGAUUAGUUUUGGAGUACUCGUGGUCG
In short: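 The eight P1ex-region nucleotides of an intron in the knt kanamycin-resistance gene on pET-22b(+) were all randomised and the library put into E. coli BL21(DE3). Six replicate transformations were grown overnight at 37°C or 30°C on LB agar with or without 25 μg/mL kanamycin, together with 100 μg/mL carbenicillin, 50 μM IPTG and 0.2% rhamnose. Colonies were pooled and amplicon-sequenced on an Illumina HiSeq 2500. Fitness from DiMSum is the error-weighted combination of wild-type-normalised replicate fold changes, kanamycin over none.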

| Sequence | self-splicing fitness (ln) (30 °C) | self-splicing fitness (ln) (37 °C) |
| --- | --- | --- |
| CGAAAGCAAUAUUACGCUAG | -2.3 ± 0.12 | -1.57 ± 0.12 |
| CGAAAGCAAUAUUACGCUUG | -2.51 ± 0.087 | -2.15 ± 0.091 |
| CGAAAGCAAUAUUACGGAAG | -0.208 ± 0.097 | -0.546 ± 0.11 |
| CGAAAGCAAUAUUACGGACC | -0.938 ± 0.11 | 0.398 ± 0.13 |
| CGAAAGCAAUAUUACGGAGU | -3.55 ± 0.19 | -2.42 ± 0.17 |
| CGAAAGCAAUAUUACGGCAC | -2.6 ± 0.15 | 0.387 ± 0.21 |
| CGAAAGCAAUAUUACGGCGA | -0.763 ± 0.11 | -0.486 ± 0.11 |
| CGAAAGCAAUAUUACGGCUU | -4.2 ± 0.22 | -2.79 ± 0.3 |
| CGAAAGCAAUAUUACGGGGG | -2.85 ± 0.14 | -1.96 ± 0.13 |
| CGAAAGCAAUAUUACGGGUU | -3.58 ± 0.21 | -2.74 ± 0.19 |
| CGAAAGCAAUAUUACGGUAC | -2.51 ± 0.29 | – |
| CGAAAGCAAUAUUACGUACU | -0.756 ± 0.078 | 0.23 ± 0.098 |
| CGAAAGCAAUAUUACGUCCG | -1.22 ± 0.088 | -0.637 ± 0.12 |
| CGAAAGCAAUAUUACGUCUU | -2.8 ± 0.13 | -1.87 ± 0.16 |
| CGAAAGCAAUAUUACGUGAU | -2.36 ± 0.11 | -1.95 ± 0.14 |
| CGAAAGCAAUAUUACGUGGA | -3.24 ± 0.13 | -1.66 ± 0.096 |
| CGAAAGCAAUAUUACGUUAU | -3.68 ± 0.31 | -3.5 ± 0.29 |
| CGACAGCAAUAUUACGAACU | -1.16 ± 0.13 | -0.845 ± 0.15 |
| CGACAGCAAUAUUACGAGUA | -3.58 ± 0.18 | -1.52 ± 0.12 |
| CGACAGCAAUAUUACGAUAU | -2.96 ± 0.14 | -2.84 ± 0.12 |
| CGACAGCAAUAUUACGCAAG | -1.28 ± 0.081 | -0.83 ± 0.097 |
| CGACAGCAAUAUUACGCAGU | -3.75 ± 0.22 | -2.05 ± 0.23 |
| CGACAGCAAUAUUACGCCCU | -1.46 ± 0.1 | -0.191 ± 0.11 |
| CGACAGCAAUAUUACGCCGU | -2.62 ± 0.35 | -1.55 ± 0.33 |
| CGACAGCAAUAUUACGCUAU | -3.71 ± 0.23 | -2.04 ± 0.14 |

| Sequence | self-splicing fitness (ln) (30 °C) | self-splicing fitness (ln) (37 °C) |
| --- | --- | --- |
| CGACAGCAAUAUUACGCUUA | -2.2 ± 0.14 | -1.78 ± 0.12 |
| CGACAGCAAUAUUACGCUUC | – | -3.09 ± 0.43 |
| CGACAGCAAUAUUACGCUUG | -1.8 ± 0.098 | -1.22 ± 0.12 |
| CGACAGCAAUAUUACGGAAG | -2.1 ± 0.068 | -1.24 ± 0.083 |
| CGACAGCAAUAUUACGGACG | -2.24 ± 0.11 | -1.33 ± 0.15 |
| CGACAGCAAUAUUACGGCAU | -3.08 ± 0.21 | -2.16 ± 0.25 |
| CGACAGCAAUAUUACGGCGA | -1.65 ± 0.14 | -0.523 ± 0.13 |
| CGACAGCAAUAUUACGGCGC | -3.37 ± 0.24 | -0.977 ± 0.15 |
| CGACAGCAAUAUUACGGCGG | -0.174 ± 0.078 | 0.335 ± 0.11 |
| CGACAGCAAUAUUACGGCGU | -3.22 ± 0.088 | -1.59 ± 0.074 |
| CGACAGCAAUAUUACGGGCG | -1.71 ± 0.17 | -1.81 ± 0.19 |
| CGACAGCAAUAUUACGGGCU | -4.16 ± 0.2 | -2.53 ± 0.15 |
| CGACAGCAAUAUUACGGUAG | -1.47 ± 0.069 | -0.946 ± 0.069 |
| CGACAGCAAUAUUACGGUCA | -0.168 ± 0.083 | 0.276 ± 0.1 |
| CGACAGCAAUAUUACGGUCG | -3.33 ± 0.14 | -2.48 ± 0.15 |
| CGACAGCAAUAUUACGUGUC | -3.39 ± 0.13 | -2.01 ± 0.12 |
| CGAGAGCAAUAUUACGACAU | -3.964 ± 0.034 | -2.84 ± 0.046 |
| CGAGAGCAAUAUUACGACUC | -2.03 ± 0.42 | -0.968 ± 0.39 |
| CGAGAGCAAUAUUACGAUAC | -3.49 ± 0.42 | -1.05 ± 0.26 |
| CGAGAGCAAUAUUACGAUCA | -2.63 ± 0.38 | -1.75 ± 0.38 |
| CGAGAGCAAUAUUACGAUCU | -2.45 ± 0.42 | – |
| CGAGAGCAAUAUUACGCUAA | -2.68 ± 0.33 | – |
| CGAGAGCAAUAUUACGGAUC | -3.76 ± 0.38 | -1.51 ± 0.28 |
| CGAGAGCAAUAUUACGGCAU | -3.2 ± 0.42 | -2.15 ± 0.46 |
